Experiment [1] deals with T1, human FcγRIIb (human, UniProt P31994 43-217, limits assumed).
T1 construct: also called FcγIIB; hFcgRIIb
T1 sequence: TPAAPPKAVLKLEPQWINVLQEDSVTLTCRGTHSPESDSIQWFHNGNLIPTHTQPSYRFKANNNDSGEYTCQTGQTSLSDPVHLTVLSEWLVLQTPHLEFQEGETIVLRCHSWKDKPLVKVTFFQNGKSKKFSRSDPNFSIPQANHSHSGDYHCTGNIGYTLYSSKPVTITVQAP
As to the kind of experiment: ratio of this variant's SPR KD for FcγRIIaH to its KD for FcγRIIb.
Text: (§1) Furthermore, KD(IIaR)/KD(IIb) and KD(IIaH)/KD(IIb) in the table respectively represent the value obtained by dividing the KD value of each variant for FcγRIIaR by the KD value of each variant for FcγRIIb, and the value obtained by dividing the KD value of each variant for FcγRIIaH by the KD value of each variant for FcγRIIb.

Experiment [2] has as its target T1, human FcγRIIb. In words: ratio of this variant's SPR KD for FcγRIIaR to its KD for FcγRIIb.
Text: as §1
Experiment [3] has as its target T2, human FcγRIIa type R (human, UniProt P12318 36-217).
T2 construct: also called FcγRIIaR; FcγRIIa(R)
T2 chain: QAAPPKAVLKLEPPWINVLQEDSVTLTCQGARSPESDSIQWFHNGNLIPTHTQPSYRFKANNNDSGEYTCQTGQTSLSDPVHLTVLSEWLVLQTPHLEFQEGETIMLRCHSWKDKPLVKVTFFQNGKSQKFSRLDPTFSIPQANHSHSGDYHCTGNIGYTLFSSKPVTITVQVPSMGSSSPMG
In words: SPR KD of this variant's stronger FcγRIIa allotype binding divided by that of parent IL6R-B3/IL6R-L.
Text: as §1

For experiment [4], the target named is T3, human FcγRIIb (human, UniProt P31994 43-217, limits assumed).
T3 construct: also called hFcgRIIb
T3 sequence: T1 sequence
As to the kind of experiment: SPR (Biacore) KD; ratio against the KD for FcγRIIaH. For orientation: SPR reads the build-up and loss of mass on a sensor chip optically.

Experiment [5] concerns the target T3, human FcγRIIb. In words: SPR (Biacore) KD; ratio against the KD for FcγRIIaR.
The target in the next experiment is T4, human FcγRIIa(H) (human, UniProt P12318 36-217).
T4 construct: also called hFcgRIIa(H); FcγRIIa type H
T4 sequence: T2 chain with R133H
As to the kind of experiment: SPR (Biacore T100), antibody captured by Protein A, FcγR at 2 µmol/L, 25 C.

The next experiment deals with T5, human FcγRIIIa(F) (human, UniProt P08637 17-208, limits assumed).
T5 construct: also called hFcgRIIIa(F)
T5 sequence (P08637 other isoform, or with tags, fused parts or gaps limits assumed): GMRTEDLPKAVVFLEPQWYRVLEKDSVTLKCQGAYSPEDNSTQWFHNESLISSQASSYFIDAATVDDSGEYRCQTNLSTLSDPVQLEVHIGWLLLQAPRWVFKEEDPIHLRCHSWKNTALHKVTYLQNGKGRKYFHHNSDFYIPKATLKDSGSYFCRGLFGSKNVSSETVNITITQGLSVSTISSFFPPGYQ
The experiment is described as above.

In experiment [6] the target is T2, human FcγRIIa type R. In words: SPR (Biacore), captured antibody, FcγR as analyte, 25 C.
Text: as §1
In experiment [7] the target is T1, human FcγRIIb. As to the kind of experiment: SPR KD for FcγRIIb of parent IL6R-B3/IL6R-L divided by that of this variant.
Text: as §1
The target in experiment [8] is T6, human FcγRIIa type R (allotype R131) (human, UniProt P12318 36-217).
T6 construct: also called FcγRIIaR; FcγRIIa(R)
T6 chain: T2 chain
As to the kind of experiment: SPR (Biacore), antibody captured on the chip, FcγR as analyte.

Experiment [9] deals with T7, human FcγRIIa type H (allotype H131) (human, UniProt P12318 36-217).
T7 construct: also called FcγRIIaH; FcγRIIa(H)
T7 sequence: T2 chain with R133H
The description is as above.

Experiment [10] addresses T8, human FcγRIIIa type V (allotype V158) (human, UniProt P08637 17-208, limits assumed).
T8 construct: the assay used allotype V158; also called FcγRIIIaV; FcγRIIIa(V)
Described as above.

The target of experiment [11] is T9, human FcγRIIb (human, UniProt P31994 43-217).
T9 construct: also called FcγIIB
T9 sequence: T1 sequence
In words: SPR (Biacore); KD of parent IL6R-B3/IL6R-L for FcγRIIb divided by KD of the variant for FcγRIIb.
Text: as §1

The target of experiment [12] is T10, human FcγRIIb (human, UniProt P31994 43-217, limits assumed).
T10 construct: also called FcgRIIb; FcγIIB
T10 sequence: T1 sequence
As to the kind of experiment: SPR (Biacore), antibody captured, FcγR as analyte.
Experimental: (§2) Interaction between each modified antibody and Fcγ receptor prepared in the manner described above was analyzed using the Biacore T100 (GE Healthcare), Biacore T200 (GE Healthcare), Biacore A100 or Biacore 4000. HBS-EP+ (GE Healthcare) was used for the running buffer, and measurements were carried out at 25° C. The chips used were chips in which antigen peptides, Protein A (Thermo Scientific), Protein A/G (Thermo Scientific) or Protein L (ACTIGEN or BioVision) were immobilized on the Series S Sensor Chip CM5 (GE Healthcare) or Series S Sensor Chip CM4 (GE Healthcare) by amine coupling, or chips in which preliminarily biotinylated antigen peptides were allowed to interact and then immobilized on the Series S Sensor Chip SA (certified) (GE Healthcare). The target antibodies were captured on these sensor chips, Fcγ receptor diluted with the running buffer was allowed to interact, followed by measurement of the amount of bound antibody. The amounts bound were compared between antibodies. However, since the amount of Fcγ receptor bound depends on the amount of captured antibody, the values used for comparison were first corrected by dividing the amount of Fcγ receptor bound by the captured amount of each antibody. Through reaction with 10 mM glycine-HCl at pH 1.5, the sensor chips were regenerated by washing off antibody captured on the sensor chips and used repeatedly.
Binding strength was evaluated according to the following method based on the results of analyzing the interaction with each FcγR. […] That value was then further multiplied by 100, and the resulting value was used as an indicator of relative binding activity to each FcγR.

Another experiment has as its target T11, human FcγRIIa(R) (human, UniProt P12318 36-217).
T11 construct: also called FcgRIIaR; FcγRIIa type R
T11 chain: T2 chain
In words: SPR (Biacore), captured antibody, FcγR analyte; bound/captured amount vs control x100.

The target of the next experiment is T12, mouse FcγRI (mouse, UniProt P26151 25-297).
T12 construct: Bought; also called mFcgRI
T12 sequence (looked up): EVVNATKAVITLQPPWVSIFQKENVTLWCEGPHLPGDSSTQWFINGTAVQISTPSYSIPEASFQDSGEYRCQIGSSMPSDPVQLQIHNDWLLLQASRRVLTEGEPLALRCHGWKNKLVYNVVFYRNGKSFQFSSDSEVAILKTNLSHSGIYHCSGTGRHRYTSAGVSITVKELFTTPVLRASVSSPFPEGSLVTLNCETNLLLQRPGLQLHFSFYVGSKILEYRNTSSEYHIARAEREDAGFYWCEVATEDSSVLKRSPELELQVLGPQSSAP
In words: SPR (Biacore), protein L capture, pH 7.4, 25 C.

The next experiment concerns the target T13, mouse FcγRIIb (mouse, UniProt P08101 40-217, limits assumed).
T13 construct: Bought; also called mFcgRIIb
T13 sequence (looked up): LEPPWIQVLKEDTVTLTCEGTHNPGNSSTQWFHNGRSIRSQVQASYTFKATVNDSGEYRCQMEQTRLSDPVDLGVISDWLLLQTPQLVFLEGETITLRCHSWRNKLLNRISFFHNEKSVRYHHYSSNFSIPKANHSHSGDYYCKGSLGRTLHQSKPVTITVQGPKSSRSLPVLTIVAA
In words: SPR (Biacore), protein L capture, pH 7.4, 25 C.

The target in the next experiment is T14, mouse FcγRIII (mouse, UniProt P08508 31-215).
T14 construct: Bought; also called mFcgRIII
T14 sequence (looked up): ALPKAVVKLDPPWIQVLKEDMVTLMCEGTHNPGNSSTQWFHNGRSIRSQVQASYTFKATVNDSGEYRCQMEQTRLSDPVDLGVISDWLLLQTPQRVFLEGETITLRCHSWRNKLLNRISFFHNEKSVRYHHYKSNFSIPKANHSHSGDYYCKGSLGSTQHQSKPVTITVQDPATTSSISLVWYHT
In words: SPR (Biacore), protein L capture, pH 7.4, 25 C.

Where a chain is given by its changes, count along the chain named. Numbers in names are those of the source.

T8 sequence (P08637 other isoform, or with tags, fused parts or gaps limits assumed): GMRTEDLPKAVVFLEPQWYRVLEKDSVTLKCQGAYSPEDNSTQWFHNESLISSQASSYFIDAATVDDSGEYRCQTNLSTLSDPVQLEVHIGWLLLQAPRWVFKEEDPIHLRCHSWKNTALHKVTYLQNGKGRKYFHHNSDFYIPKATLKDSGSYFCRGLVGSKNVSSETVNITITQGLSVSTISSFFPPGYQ
Experimental for human FcγRIIIa(F): (§3) Next, interaction between these antibodies and FcγR was analyzed kinetically using the Biacore T100 (GE Healthcare). The interaction was measured at a temperature of 25° C. using HBS-EP+ (GE Healthcare) for the running buffer. The Series S Sensor Chip CM5 (GE Healthcare) was used after immobilizing Protein A by amine coupling. […] Antibody captured on the chip was washed by allowing 10 mM glycine-HCl (pH 1.5) to react following measurement. The chip regenerated in this manner was used repeatedly. The dissociation constant KD (mol/L) was calculated from the association rate constant ka (L/mol/s) and dissociation rate constant kd (1/s) as calculated by global-fitting the measurement results with a 1:1 Langmuir binding model using the Biacore
Experimental for human FcγRIIa(H): as §3
Experimental for human FcγRIIa(R): as §2

B1: IL6R-BP089/IL6R-L (antibody, human IgG1)
heavy: QVQLQESGPGLVKPSETLSLTCAVSGHSISHDHAWSWVRQPPGEGLEWIGFISYSGITNYNPSLQGRVTISRDNSKNTLYLQMNSLRAEDTAVYYCARSLARTTAMDYWGEGTLVTVSSASTKGPSVFPLAPSSKSTSGGTAALGCLVKDYFPEPVTVSWNSGALTSGVHTFPAVLQSSGLYSLSSVVTVPSSSLGTQTYICNVNHKPSNTKVDKKVEPKSCDKTHTCPPCPAPEYLGGDSVFLFPPKPKDTLMISRTPEVTCVVVDVSHEDPEVKFNWYVDGVEVHNAKTKPREEQYNSTYRVVSVLTVLHQDWLNGKEYKCKVSNAALPKPIEKTISKAKGQPREPQVYTLPPSRDELTKNQVSLTCLVKGFYPSDIAVEWESNGQPENNYKTTPPVLDSDGSFFLYSKLTVDKSRWQQGNVFSCSVMHEALHNHYTQESLSLSP
light: DIQMTQSPSSLSASVGDRVTITCRASQDISSYLNWYQQKPGKAPKLLIYYTSRLHSGVPSRFSGSGSGTDFTFTISSLQPEDIATYYCQQGNTLPYTFGQGTKVEIK
notes: copies: 2 + 2
Consider B1, for which the “KD (IIaH)/KD (IIb)” value with human FcγRIIb [1] came out at 51.9. For the same molecule, in the experiment with human FcγRIIb [2], the “KD (IIaR)/KD (IIb)” value is 16.6. Besides, the “KD value for the stronger of the FcγRIIaR- and FcγRIIaH-binding activities of the variant/that of the parent polypeptide” value with human FcγRIIa type R [3] was 6.3.

B2: IL6R-F11/IL6R-L (antibody, human IgG1)
heavy: not shown
light: B1 light
notes: copies: 2 + 2
On to B2, for which, in the experiment with human FcγRIIb [4], the “KD value for FcγRIIaH/KD value for FcγRIIb” value is 0.7. Moreover, in the experiment with human FcγRIIb [5], the “KD value for FcγRIIaR/KD value for FcγRIIb” value is 0.7.

B3: IgG1-v1 (antibody)
heavy: not shown
light: B1 light
notes: copies: 2 + 2
For B3, the “binding (RU)” value with human FcγRIIa(H) and with human FcγRIIIa(F) was approximately 2.5 RU each time.

B4: IL6R-BP144/IL6R-L (antibody, human IgG1)
heavy: B1 heavy with Y236L, G239D, K332A
light: B1 light
notes: copies: 2 + 2
In turn, B4 showed a Kd with human FcγRIIa type R [6] of 2.9 µM. Besides, the “KD (IIaH)/KD (IIb)” value with human FcγRIIb [1] worked out at 45.8. Besides, the “KD (IIaR)/KD (IIb)” value with human FcγRIIb [2] was 8.7. The “KD(IIb) of the parent polypeptide/KD(IIb) of the altered polypeptide” value with human FcγRIIb [7] worked out at 5.9. The “KD value for the stronger of the FcγRIIaR- and FcγRIIaH-binding activities of the variant/that of the parent polypeptide” value in the experiment with human FcγRIIa type R [3] turned out to be 6.9.

B5: IL6R-B3/IL6R-L (antibody, human IgG1)
heavy: not shown
light: B1 light
notes: copies: 2 + 2
With B5, the “KD value for FcγRIIaH/KD value for FcγRIIb” value with human FcγRIIb [4] stood at 0.2. Besides, in the experiment with human FcγRIIb [5], the “KD value for FcγRIIaR/KD value for FcγRIIb” value is 0.3.

B6: IgG1-v2 (antibody)
heavy: not shown
light: B1 light
notes: copies: 2 + 2
Take B6: the results for the “binding (RU)” value with human FcγRIIa(H) and in the experiment with human FcγRIIIa(F) were approximately 10 RU and approximately 5 RU, respectively.

B7: IL6R-BP185/IL6R-L (antibody, human IgG1)
heavy: B1 heavy with E235D, G239D, P273G
light: B1 light
notes: Anti-human IL-6 receptor human IgG1 variant; copies: 2 + 2
In the case of B7, the Kd in experiment [8] amounted to 0.68 µM; in experiment [9], 7.3 µM; in experiment [10], 36 µM. Moreover, the “KD(IIb) of the parent polypeptide/KD(IIb) of the altered polypeptide” value with human FcγRIIb [11] came out at 44.5.

B8: GpH7-B3 D270W / GpL16-k0 (antibody, human IgG1)
heavy: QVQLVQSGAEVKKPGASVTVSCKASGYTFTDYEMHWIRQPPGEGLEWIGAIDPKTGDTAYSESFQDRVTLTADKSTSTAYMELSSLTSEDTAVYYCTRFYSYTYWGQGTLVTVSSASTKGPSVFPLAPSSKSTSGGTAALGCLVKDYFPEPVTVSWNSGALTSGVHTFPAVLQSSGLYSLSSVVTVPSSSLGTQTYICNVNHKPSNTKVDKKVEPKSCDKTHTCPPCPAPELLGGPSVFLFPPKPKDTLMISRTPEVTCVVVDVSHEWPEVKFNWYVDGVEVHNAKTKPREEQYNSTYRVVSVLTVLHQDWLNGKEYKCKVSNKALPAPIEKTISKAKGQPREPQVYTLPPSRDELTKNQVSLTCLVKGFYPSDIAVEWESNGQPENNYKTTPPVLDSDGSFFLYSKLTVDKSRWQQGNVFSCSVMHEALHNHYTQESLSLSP
light: DIVMTQSPLSLPVTPGEPASISCQASESLVHSNRNTYLHWYLQKPGQSPQLLIYKVSNRFSGVPDRFSGSGSGTDFTLKISRVEAEDVGVYYCSQNTHVPPTFGQGTKVEIE
notes: B3 variant: anti-glypican-3 IgG1 (constant region B3 = G1d with K439E) with one substitution, EU numbering; also called B3 variant D270W; copies: 2 + 2
For B8, the “relative binding activity (amount bound / amount bound by GpH7-B3/GpL16-k0 x100)” value with human FcγRIIb [12] was -2 % of GpH7-B3/GpL16-k0.

B9: GpH7-B3 G237P/GpL16-k0 (antibody, human IgG1)
heavy: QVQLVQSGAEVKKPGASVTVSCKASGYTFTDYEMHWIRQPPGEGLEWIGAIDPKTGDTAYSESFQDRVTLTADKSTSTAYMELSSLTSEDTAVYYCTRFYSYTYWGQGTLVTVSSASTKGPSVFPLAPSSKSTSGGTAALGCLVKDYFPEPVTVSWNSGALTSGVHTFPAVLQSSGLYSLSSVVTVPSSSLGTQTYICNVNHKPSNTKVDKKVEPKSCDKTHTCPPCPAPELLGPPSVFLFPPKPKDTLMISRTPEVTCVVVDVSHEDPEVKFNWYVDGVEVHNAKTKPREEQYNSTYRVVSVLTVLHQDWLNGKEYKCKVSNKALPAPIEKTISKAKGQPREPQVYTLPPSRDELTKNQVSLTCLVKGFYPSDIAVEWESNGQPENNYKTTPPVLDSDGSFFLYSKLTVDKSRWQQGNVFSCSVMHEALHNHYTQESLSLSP
light: B8 light
notes: B3 variant of anti-glypican-3 IgG1; substitution in EU numbering; also called B3 variant
Regarding B9, in the experiment with human FcγRIIa(R), the relative binding activity is 8 % of GpH7-B3/GpL16-k0.

B10: GpH7-B3 S239R/GpL16-k0 (antibody, human IgG1)
heavy: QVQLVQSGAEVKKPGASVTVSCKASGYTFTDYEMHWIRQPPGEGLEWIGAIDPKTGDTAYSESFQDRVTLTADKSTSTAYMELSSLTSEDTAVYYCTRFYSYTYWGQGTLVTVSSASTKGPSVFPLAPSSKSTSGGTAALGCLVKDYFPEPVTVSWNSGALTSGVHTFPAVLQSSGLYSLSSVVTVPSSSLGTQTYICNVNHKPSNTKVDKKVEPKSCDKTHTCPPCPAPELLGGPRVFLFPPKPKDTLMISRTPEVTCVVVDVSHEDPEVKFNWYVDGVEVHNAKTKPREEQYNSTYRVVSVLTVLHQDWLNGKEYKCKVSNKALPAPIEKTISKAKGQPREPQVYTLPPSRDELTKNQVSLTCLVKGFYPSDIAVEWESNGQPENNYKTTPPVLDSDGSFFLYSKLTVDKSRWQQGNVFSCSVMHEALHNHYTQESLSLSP
light: B8 light
notes: as for B9
B10: the relative binding activity in the experiment with human FcγRIIa(R) is 8 % of GpH7-B3/GpL16-k0.

B11: mPM1-mIgG1-mF39 (antibody)
heavy: DVQLQESGPVLVKPSQSLSLTCTVTGYSITSDHAWSWIRQFPGNKLEWMGYISYSGITTYNPSLKSRISITRDTSKNQFFLQLNSVTTGDTSTYYCARSLARTTAMDYWGQGTSVTVSSAKTTPPSVYPLAPGSAAQTNSMVTLGCLVKGYFPEPVTVTWNSGSLSSGVHTFPAVLQSDLYTLSSSVTVPSSTWPSETVTCNVAHPASSTKVDKKIVPRDCGCKPCICTVKEVSKVFIFPPKPKDVLYITLEPKVTCVVVDISKDDPEVQFSWFVDDVEVHTAQTQPREEQFNSTFRSVSELPIMHQDWLNGKEFKCRVNSAAFPAPIEKTISKTKGRPKAPQVYTIPPPKEQMAKDKVSLTCMITDFFPEDITVEWQWNGQPAENYKNTQPIMDTDGSYFVYSKLNVQKSNWEAGNTFTCSVLHEGLKNHHTEKSLSHSPGK
light: DIQMTQTTSSLSASLGDRVTISCRASQDISSYLNWYQQKPDGTIKLLIYYTSRLHSGVPSRFSGSGSGTDYSLTINNLEQEDIATYFCQQGNTLPYTFGGGTKLEIKRADAAPTVSIFPPSSEQLTSGGASVVCFLNNFYPKDINVKWKIDGSERQNGVLNSWTDQDSKDSTYSMSSTLTLTKDEYERHNSYTCEATHKTSTSPIVKSFNRNEC
notes: copies: 2 + 2
Regarding B11, the binding result in the experiment with mouse FcγRI, with mouse FcγRIIb and with mouse FcγRIII was “no binding” throughout.

B12: mPM1-mIgG1-mF40 (antibody)
heavy: B11 heavy with K429H, N430W
light: B11 light
notes: copies: 2 + 2
With B12, the binding result with mouse FcγRI, with mouse FcγRIIb and with mouse FcγRIII was “no binding” each time.

For orientation: Kd means the concentration at which binding is half-saturated.

The values above are taken from US20140105889A1 (published 2014).
